Laboratory results from patent publication US20150368316A1 (ALBERT EINSTEIN COLLEGE OF MEDICINE OF YESHIVA UNIVERSITY, published 2015).

Assays:
Assay in all cases: Kd from fitting (SPR)
[1] = target: T1, human PD-L1-Ig (immobilized) (human, UniProt Q9NZQ7 19-238)
T1 construct: also called huPD-L1; huPD-L1-Ig; not shown: Ig part of the fusion

[2] = target: T2, human PD-L2-Ig (immobilized) (human, UniProt Q9BQ51 20-219)
T2 construct: also called huPD-L2; huPD-L2-Ig; not shown: Ig part of the fusion
T2 sequence (looked up): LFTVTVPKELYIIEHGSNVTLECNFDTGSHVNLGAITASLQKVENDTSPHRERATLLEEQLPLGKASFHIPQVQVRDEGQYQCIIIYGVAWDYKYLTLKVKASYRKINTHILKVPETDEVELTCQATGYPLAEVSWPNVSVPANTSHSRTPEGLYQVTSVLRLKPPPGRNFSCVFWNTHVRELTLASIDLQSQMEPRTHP

mouse PD-L2-Ig = target: T3, mouse PD-L2-Ig (mouse, UniProt Q9WUL5 20-219)
T3 construct: also called mPD-L2-Ig; not shown: Ig part of the fusion
T3 sequence (looked up): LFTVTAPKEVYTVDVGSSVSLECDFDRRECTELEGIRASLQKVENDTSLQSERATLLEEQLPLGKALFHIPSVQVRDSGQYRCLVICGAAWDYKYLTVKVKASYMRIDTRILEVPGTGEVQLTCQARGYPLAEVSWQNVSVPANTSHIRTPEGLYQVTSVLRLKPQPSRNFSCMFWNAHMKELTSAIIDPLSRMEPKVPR

mouse PD-L1-Ig = target: T4, mouse PD-L1-Ig (mouse, UniProt Q9EP73 19-238)
T4 construct: also called mPD-L1-Ig; not shown: Ig part of the fusion
T4 sequence (Q9EP73 19-238): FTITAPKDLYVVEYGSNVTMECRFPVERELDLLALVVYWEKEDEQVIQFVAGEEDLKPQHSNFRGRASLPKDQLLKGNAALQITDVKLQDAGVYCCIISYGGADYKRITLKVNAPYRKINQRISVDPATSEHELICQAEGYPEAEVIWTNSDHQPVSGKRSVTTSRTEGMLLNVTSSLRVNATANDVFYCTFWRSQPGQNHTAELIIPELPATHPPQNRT

T1 sequence (Q9NZQ7 19-238): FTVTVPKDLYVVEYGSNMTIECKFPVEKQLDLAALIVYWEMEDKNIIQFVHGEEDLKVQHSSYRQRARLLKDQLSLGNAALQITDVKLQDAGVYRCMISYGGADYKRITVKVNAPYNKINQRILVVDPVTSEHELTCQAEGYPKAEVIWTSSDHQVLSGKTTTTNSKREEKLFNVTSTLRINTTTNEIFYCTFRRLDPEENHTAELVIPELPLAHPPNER

B1: mouse PD-1 (wild type) (receptor, UniProt Q02242 34-150, looked up)
chain: SLTFYPAWLTVSEGANATFTCSLSNWSEDLMLNWNRLSPSNQTEKQAAFCNGLSQPVQDARFQIIQLPNRHDFHMNILDTRRNDSGIYLCGAISLHPKAKIEESPGAELVVTERILE
notes: also called m PD-1
Kd [1]: 4020 nM | Kd [2]: 10700 nM | Kd (mouse PD-L2-Ig): 2800 nM

B2: mouse HA PD-1 (high-affinity mutant) (receptor, UniProt Q02242 34-150, looked up)
chain: SLTFYPAWLTVSEGANATFTCSLSNWSEDLMLNWNRLSPSNQTEKQAAFCNGLSQPVQDARFQIIQLPNRHDFHMNILDTRRNDSGIYLCGAISLHPKLKIEESPGAELVVTERILE
notes: also called m HA PD-1
Kd [1]: 480 nM | Kd [2]: 1180 nM | Kd (mouse PD-L1-Ig): 2780 nM | Kd (mouse PD-L2-Ig): 470 nM
